Source: paper PMC5481773, “Structural insights into the function of ZRANB3 in replication stress response” (Nature Communications, 2017)

What was measured:
U2OS cells = test: Colocalization of YFP-ZRANB3 foci with endogenous PCNA; assay type: cell-based; conditions: average of three experiments
Text: Figure 5 PCNA-dependent recruitment of ZRANB3. (a) Recruitment of FEN1 to the sites of laser induced DNA damage is abrogated by the mutations in the PIP box (Q337A, F343A and F344A). U2OS cells were transiently transfected with the indicated YFP constructs and analysed by live-cell imaging. Shown are representative images at the indicated time points post damage. (b) Recruitment of the YFP-tagged PIP box and APIM motif to the sites of laser induced DNA damage. Recruitment is abrogated by the mutations of the conserved residues in the PIP box and the APIM motif. […] The percentage of cells containing ZRANB3 foci that colocalize with PCNA was determined. […]
U2OS cells (ATCC) were seeded onto glass coverslips and transfected with the YFP constructs using Lipofectamine 2000 (Life Technologies). […] The coverslips were mounted in ProLong Gold anti-fade reagent with DAPI (Life Technologies) and analysed by confocal microscopy.
For the recruitment of ZRANB3 to stalled replication forks, U2OS cells were seeded onto glass coverslips and transfected with YFP-ZRANB3 constructs. […] Finally, the samples were analysed by confocal microscopy. For each experiment, more than 100 cells were counted, and the results from three independent transfections were pooled for statistical analyses.

[1] = NADH-coupled ATPase assay of ZRANB3 proteins; assay type: biochemical; conditions: 150 nM ZRANB3, 5 mM ATP, 0.5 μM flap DNA, 24 °C, average rates
Method: The NADH-coupled ATPase assay is based on a reaction in which the regeneration of hydrolysed ATP is coupled to the oxidation of NADH[59]. It was used as described, with minor modifications. ZRANB3 (150 nM) was added to a 150 μl reaction containing 25 mM Tris-Cl pH 7.5, 13 mM MgCl2, 1.8 mM DTT, 100 μg ml^−1 BSA, 3 mM phosphoenolpyruvate, 36 U ml^−1 pyruvate kinase, 20 U ml^−1 lactate dehydrogenase, 0.5 μM flap DNA, and 5 mM ATP, with 750 μM NADH added immediately before ZRANB3. Reactions were mixed for 1 min on a shaker at 23 °C and analysed by measuring A340 nm at 20 s intervals during 60 min, on a Spectramax 250 microplate spectrophotometer at 24 °C. Linear titration of freshly prepared NADH was performed to obtain a standard curve for units of absorbance mM^−1 NADH. ATPase rates were calculated from data collected between time points where product formation was linear with respect to time.

B1: WT ZRANB3: full-length human ZRANB3, recombinant; YFP-tagged in the cell assay (protein)
chain: MPRVHNIKKSLTPHISCVTNESDNLLDFLPDRLRAKLLPFQKDGIIFALKRNGRCMVADEMGLGKTIQAIGITYFYKEEWPLLIVVPSSLRYPWTEEIEKWIPELSPEEINVIQNKTDVRRMSTSKVTVLGYGLLTADAKTLIDALNNQNFKVVIVDESHYMKSRNATRSRILLPIVQKARRAILLTGTPALGRPEELFMQIEALFPQKFGRWTDYAKRYCNAHIRYFGKRPQWDCRGASNLNELHQLLSDIMIRRLKTEVLTQLPPKVRQRIPFDLPSAAAKELNTSFEEWEKIMRTPNSGAMETVMGLITRMFKQTAIAKAGAVKDYIKMMLQNDSLKFLVFAHHLSMLQACTEAVIENKTRYIRIDGSVSSSERIHLVNQFQKDPDTRVAILSIQAAGQGLTFTAASHVVFAELYWDPGHIKQAEDRAHRIGQCSSVNIHYLIANGTLDTLMWGMLNRKAQVTGSTLNGRKEKIQAEEGDKEKWDFLQFAEAWTPNDSSEELRKEALFTHFEKEKQHDIRSFFVPQPKKRQLMTSCDESKRFREENTVVSSDPTKTAARDIIDYESDVEPETKRLKLAASEDHCSPSEETPSQSKQIRTPLVESVQEAKAQLTTPAFPVEGWQCSLCTYINNSELPYCEMCETPQGSAVMQIDSLNHIQDKNEKDDSQKDTSKKVQTISDCEKQALAQSEPGQLADSKEETPKIEKEDGLTSQPGNEQWKSSDTLPVYDTLMFCASRNTDRIHIYTKDGKQMSCNFIPLDIKLDLWEDLPASFQLKQYRSLILRFVREWSSLTAMKQRIIRKSGQLFCSPILALEEITKQQTKQNCTKRYITKEDVAVASMDKVKNVGGHVRLITKESRPRDPFTKKLLEDGACVPFLNPYTVQADLTVKPSTSKGYLQAVDNEGNPLCLRCQQPTCQTKQACKANSWDSRFCSLKCQEEFWIRSNNSYLRAKVFETEHGVCQLCNVNAQELFLRLRDAPKSQRKNLLYATWTSKLPLEQLNEMIRNPGEGHFWQVDHIKPVYGGGGQCSLDNLQTLCTVCHKERTARQAKERSQVRRQSLASKHGSDITRFLVKK
modifications: left off: His6, N-terminal, cleaved
notes: full-length human ZRANB3, recombinant; YFP-tagged in the cell assay
U2OS cells; U2OS cells transfected with YFP-ZRANB3, UV 40 J m^−2, 6 h recovery
  cells that formed ZRANB3 foci (colocalizing with PCNA): > 95%
U2OS cells; U2OS cells transfected with YFP-ZRANB3, undamaged conditions
  cells that formed ZRANB3 foci (colocalizing with PCNA): ~20%
[1]; A340 nm
  ATP hydrolysis rate: 16.59 ± 0.34 µmol/L/min
[1]
  k: 110.65 ± 2.27 min⁻¹
